In assay [1] the target is T1, Cap1 (CRISPR-associated pore 1) (Parafilimonas terrae, UniProt A0A1I5TJE5, Q118A).
T1 construct: gene SAMN05444277_102160; CARFL domain (residues 85–220), His6-tagged
Put plainly: ITC with purified CARFL Q118A domain. Type of assay: binding.

Assay [2] addresses T2, Cap1 (CRISPR-associated pore 1) (Parafilimonas terrae, UniProt A0A1I5TJE5).
T2 construct: gene SAMN05444277_102160; ITC: CARFL domain (residues 85–220), His6-tagged; cryo-EM: full-length Cap1-His6 in GDN, homotetramer
T2 sequence (A0A1I5TJE5 85-220): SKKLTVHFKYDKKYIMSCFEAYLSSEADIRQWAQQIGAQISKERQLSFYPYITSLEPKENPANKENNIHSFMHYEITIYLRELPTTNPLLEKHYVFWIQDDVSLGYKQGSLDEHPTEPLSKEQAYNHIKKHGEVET
The assay is described as follows: ITC with purified CARFL domain; cryo-EM structure of cA4-bound full-length tetramer ([…] Å). Type of assay: binding.

For assay [3], the target named is Cap1 (CRISPR-associated pore 1), full-length, C-terminal His6 tag (Parafilimonas terrae). The assay is described as follows: SEC-MALS; conjugate SEC-MALS (protein conjugate method) of apo-Cap1 without cOA ligand; Superdex200 10/300 increase; 25 mM Hepes pH 8, 200 mM NaCl, 2 mM β-mercaptoethanol, 5 % glycerol, 375 μM GDN.
Assay [4] shares this target. Put plainly: cryo-EM structure; apo-Cap1 in GDN, 200 μM protein, 0.5 mM FOM detergent added for grids; map at 3.4 Å, C1 symmetry.
Assay [5] shares this target. The assay is described as follows: cryo-EM structure; Cap1 in GDN, 150 μM (as monomer) with 800 μM cA4, 30 min on ice; two classes: 2.9 Å (C4; DUF4579 not visible) and 3.6 Å (C4; DUF4579 visible, TM1 not resolved).

The term Kd denotes the equilibrium constant for the complex coming apart. Lower therefore signals higher affinity. In general, stoichiometry N refers to a count of units in the complex or per binding partner.

Regarding `Nc1ncnc2c1ncn2[C@@H]1O[C@@H]2COP(=O)(O)O[C@H]3[C@@H](O)[C@H](n4cnc5c(N)ncnc54)O[C@@H]3COP(=O)(O)O[C@H]3[C@@H](O)[C@H](n4cnc5c(N)ncnc54)O[C@@H]3COP(=O)(O)O[C@H]3[C@@H](O)[C@H](n4cnc5c(N)ncnc54)O[C@@H]3COP(=O)(O)O[C@H]2[C@H]1O` [cA4, cyclic tetra-adenylate], the Kd in assay [1] was ~1200 nM; in assay [2], ~33 nM.

For “Cap1 (CRISPR-associated pore 1), full-length, C-terminal His6 tag (natural protein)”, the stoichiometry N in assay [3], in assay [4] and in assay [5] was 4 throughout.

The values above are taken from publication doi:10.1101/2025.11.13.688252, “Cap1 forms a cyclic tetra-adenylate-induced membrane pore during the type III-A CRISPR-Cas immune response” (bioRxiv, 2025).
